Molecular target: T1, Human LRP6 E1E2 (21-630) (human, UniProt O75581 21-630)
T1 sequence (looked up): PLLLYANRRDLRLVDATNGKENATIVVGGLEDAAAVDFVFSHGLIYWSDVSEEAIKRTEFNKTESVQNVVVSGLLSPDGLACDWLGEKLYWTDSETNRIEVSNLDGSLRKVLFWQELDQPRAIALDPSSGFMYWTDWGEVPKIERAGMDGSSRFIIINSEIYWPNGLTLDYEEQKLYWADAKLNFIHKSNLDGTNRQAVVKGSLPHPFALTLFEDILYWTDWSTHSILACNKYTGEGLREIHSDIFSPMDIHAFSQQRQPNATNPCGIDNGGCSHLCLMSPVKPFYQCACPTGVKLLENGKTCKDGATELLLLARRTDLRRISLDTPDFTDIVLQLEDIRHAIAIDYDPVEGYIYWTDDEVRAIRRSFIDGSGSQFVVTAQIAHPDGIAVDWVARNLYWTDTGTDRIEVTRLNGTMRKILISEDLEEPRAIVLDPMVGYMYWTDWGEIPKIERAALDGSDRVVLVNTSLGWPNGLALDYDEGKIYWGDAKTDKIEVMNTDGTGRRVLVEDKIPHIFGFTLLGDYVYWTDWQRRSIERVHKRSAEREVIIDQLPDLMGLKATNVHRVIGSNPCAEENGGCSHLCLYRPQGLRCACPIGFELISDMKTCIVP
Experiment: HDX-MS

binding result: binds
B1: SOSTΔ (24-169) (domain or fragment, human, UniProt Q9BQB4 24-169, looked up)
chain: QGWQAFKNDATEIIPELGEYPEPPPELENNKTMNRAENGGRPPHHPFETKDVSEYSCRELHFTRYVTDGPCRSAKPVTELVCSGQCGPARLLPNAIGRGKWWRPSGPDFRCIPDRYRAQRVQLLCPGGEAPRARKVRLVASCKCKR

From PMC8411024 (Biomolecules & Therapeutics, 2021)
